{"source": "patent US20220204609A1", "about": "(SHANDONG BOAN BIOTECHNOLOGY, published 2022)", "binders": {"B1": {"name": "CLDQ1-CA841-IgG1 (antibody, V domains shown)", "VH": "QVQLVQSGAEVKKPGSSVKVSCKASGGTFSSYAISWVRQAPGQGLEWMGRIIPILGIANYAQKFQGRVTVTADKSTSTAYMELSSLRSEDTAVYYCARERDNWDPYYYYYGMDVWGQGTTVTVSS", "VL": "DIQMTQSPSTLSASVGDRVTITCRASQSINSWLAWYQQKPGKAPKLLIYKASSLESGVPSRFSGSGSGTEFTLTISSLQPDDFATYYCQQYNSFPLTFGGGTKVEIKR", "notes": "Complete IgG1 made in HEK293 cells"}, "B2": {"name": "CLD389-CA802-IgG1 (antibody, V domains shown)", "VH": "QVQLVESGGGVVQPGRSLRLSCAASGFTFSSYAMHWVRQVPGKGLEWVAIISYDGSIKYYADSVKGQFTISRDNSKNTLSLQMNSLRPEDTAVYYCARDPTMVRGVRGMDVWGQGTTVTVSS", "VL": "DIQMTQSPSSLSASVGDRVTITCRASQGIRNDLGWYQQKPGKAPKLLIYAASSLQSGVPSRFSGSGSGTDFTLTISSLQPEDFATYYCLQDYNYPLTFGGGTKLEIKR", "notes": "as for B1"}, "B3": {"name": "CLD389-CA852-IgG1 (antibody, V domains shown)", "VH": "B2 VH with V40A, I50V, I57K, Q67R, S80Y, P88A", "VL": "B2 VL with D1E, Q3V, S10T, V15I, L104V", "notes": "as for B1"}, "B4": {"name": "CLD389-279-IgG1 (antibody, V domains shown)", "VH": "EVQLVQSGGGVVQPGRSLRLSCAASGFTFSNYAMHWVRQAPGKGLEWVAVISYDGSNKYYADSVKGRFTISRDNSKNTLYLQMNSLRAEDTAVYYCARELRFFDWLLGRAFDIWGQGTMVTVSS", "VL": "B2 VL with D1E, Q3V, S9P, L96W, G100Q", "notes": "Complete IgG1 made in HEK293 cells; also called C279; CLD389-C279"}}, "key": {"Claudin18.1 on cells [1]": {"molecular_target": "T1, Claudin18.1 on cells (human, UniProt P56856 1-261)", "T1 construct": "whole, on cells", "assay": "flow cytometry on 293T-Claudin18.1 cells, antibody at 0.375 µg/mL", "method": "(§1) Each candidate antibody was serially diluted with FACS buffer (sterile PBS, 0.2% BSA), and added to the 96-well round-bottom plate at 50 μL/well before an incubation at 4° C. for 1 h. The supernatant was discarded after centrifugation at 2000 rpm for 3 min."}, "Claudin18.2 on cells [2]": {"molecular_target": "T2, Claudin18.2 on cells (human, UniProt P56856-2 1-261)", "T2 construct": "whole, on cells; the cell line of each result is named under assay or readout", "assay": "flow cytometry on 293T-Claudin18.2 cells, antibody at 0.75 µg/mL", "method": "as §1"}, "Claudin18.1 on cells [3]": {"molecular_target": "T1, Claudin18.1 on cells", "assay": "flow cytometry on 293T-Claudin18.1 cells, antibody at 3 µg/mL", "method": "as §1"}, "Claudin18.2 on cells [4]": {"molecular_target": "T2, Claudin18.2 on cells", "assay": "flow cytometry on NUGC4 cells, antibody at 0.75 µg/mL", "method": "as §1"}, "Claudin18.2 on cells [5]": {"molecular_target": "T2, Claudin18.2 on cells", "assay": "cell-based or functional assay"}, "Claudin18.2 on cells [6]": {"molecular_target": "T2, Claudin18.2 on cells", "assay": "flow cytometry on 293T-Claudin18.2 cells, antibody at 1.5 µg/mL", "method": "as §1"}, "Claudin18.1 on cells [7]": {"molecular_target": "T1, Claudin18.1 on cells", "assay": "flow cytometry on 293T-Claudin18.1 cells, antibody at 0.75 µg/mL", "method": "as §1"}, "Claudin18.1 on cells [8]": {"molecular_target": "T1, Claudin18.1 on cells", "assay": "flow cytometry on 293T-Claudin18.1 cells, antibody at 1.5 µg/mL", "method": "as §1"}, "Claudin18.2 on cells [9]": {"molecular_target": "T2, Claudin18.2 on cells", "assay": "flow cytometry on 293T-Claudin18.2 cells, antibody at 3 µg/mL", "method": "as §1"}, "Claudin18.2 on cells [10]": {"molecular_target": "T2, Claudin18.2 on cells", "assay": "flow cytometry on NUGC4 cells, antibody at 1.5 µg/mL", "method": "as §1"}, "Claudin18.2 on cells [11]": {"molecular_target": "T2, Claudin18.2 on cells", "assay": "cell-based or functional assay", "remark": "listed apart in the source"}, "Claudin18.2 on cells [12]": {"molecular_target": "T2, Claudin18.2 on cells", "assay": "flow cytometry on 293T-Claudin18.2 cells, antibody at 0.375 µg/mL", "method": "as §1"}, "Claudin18.2 on cells [13]": {"molecular_target": "T2, Claudin18.2 on cells", "assay": "flow cytometry on NUGC4 cells, antibody at 3 µg/mL", "method": "as §1"}, "Claudin18.2 on cells [14]": {"molecular_target": "T2, Claudin18.2 on cells", "assay": "cell-based or functional assay", "remark": "listed apart in the source"}, "Claudin18.2 on cells [15]": {"molecular_target": "T2, Claudin18.2 on cells", "assay": "flow cytometry on NUGC4 cells, antibody at 3 µg/mL", "remark": "listed apart in the source", "method": "as §1"}, "Claudin18.2 on cells [16]": {"molecular_target": "T2, Claudin18.2 on cells", "assay": "flow cytometry on NUGC4 cells, antibody at 1.5 µg/mL", "remark": "listed apart in the source", "method": "as §1"}, "Claudin18.2 on cells [17]": {"molecular_target": "T2, Claudin18.2 on cells", "assay": "flow cytometry on NUGC4 cells, antibody at 0.75 µg/mL", "remark": "listed apart in the source", "method": "as §1"}}, "note": "Numbering of substitutions follows the chain as printed. Like-named read-outs stand apart in the source and are kept apart here.", "data": [{"binder": "B1", "values": [{"measurement": "mean fluorescence intensity", "setting": "Claudin18.1 on cells [1]", "result": 21500}, {"measurement": "mean fluorescence intensity", "setting": "Claudin18.2 on cells [2]", "result": 583000}, {"measurement": "mean fluorescence intensity", "setting": "Claudin18.1 on cells [3]", "result": 11000}, {"measurement": "mean fluorescence intensity", "setting": "Claudin18.2 on cells [4]", "result": 11100}, {"measurement": "ADCC inhibition rate, %, antibody 0.1 µg/mL, 293T-Claudin18.2 target cells, PBMC effectors, LDH", "setting": "Claudin18.2 on cells [5]", "result": 15.6, "unit": "%"}, {"measurement": "ADCC inhibition rate, %, antibody 1 µg/mL, 293T-Claudin18.2 target cells, PBMC effectors, LDH", "setting": "Claudin18.2 on cells [5]", "result": 27.2, "unit": "%"}, {"measurement": "ADCC inhibition rate, %, antibody 10 µg/mL, 293T-Claudin18.2 target cells, PBMC effectors, LDH", "setting": "Claudin18.2 on cells [5]", "result": 58.5, "unit": "%"}, {"measurement": "mean fluorescence intensity", "setting": "Claudin18.2 on cells [6]", "result": 855000}, {"measurement": "mean fluorescence intensity", "setting": "Claudin18.1 on cells [7]", "result": 18100}, {"measurement": "mean fluorescence intensity", "setting": "Claudin18.1 on cells [8]", "result": 37900}, {"measurement": "mean fluorescence intensity", "setting": "Claudin18.2 on cells [9]", "result": "1.09e+06"}, {"measurement": "mean fluorescence intensity", "setting": "Claudin18.2 on cells [10]", "result": 13200}, {"measurement": "ADCC EC50 (µg/mL), NUGC4 target cells, Jurkat reporter effector cells, Bio-Glo", "setting": "Claudin18.2 on cells [11]", "result": 17.3, "unit": "µg/mL"}, {"measurement": "mean fluorescence intensity", "setting": "Claudin18.2 on cells [12]", "result": 308000}, {"measurement": "mean fluorescence intensity", "setting": "Claudin18.2 on cells [13]", "result": 32400}]}, {"binder": "B2", "values": [{"measurement": "mean fluorescence intensity", "setting": "Claudin18.1 on cells [1]", "result": 96700}, {"measurement": "mean fluorescence intensity", "setting": "Claudin18.2 on cells [2]", "result": 774000}, {"measurement": "mean fluorescence intensity", "setting": "Claudin18.1 on cells [3]", "result": 194000}, {"measurement": "mean fluorescence intensity", "setting": "Claudin18.2 on cells [4]", "result": 24400}, {"measurement": "ADCC inhibition rate, %, antibody 0.1 µg/mL, 293T-Claudin18.2 target cells, PBMC effectors, LDH", "setting": "Claudin18.2 on cells [5]", "result": 25.6, "unit": "%"}, {"measurement": "ADCC inhibition rate, %, antibody 1 µg/mL, 293T-Claudin18.2 target cells, PBMC effectors, LDH", "setting": "Claudin18.2 on cells [5]", "result": 61.4, "unit": "%"}, {"measurement": "ADCC inhibition rate, %, antibody 10 µg/mL, 293T-Claudin18.2 target cells, PBMC effectors, LDH", "setting": "Claudin18.2 on cells [5]", "result": 61.2, "unit": "%"}, {"measurement": "mean fluorescence intensity", "setting": "Claudin18.2 on cells [6]", "result": "1.05e+06"}, {"measurement": "mean fluorescence intensity", "setting": "Claudin18.1 on cells [7]", "result": 141000}, {"measurement": "mean fluorescence intensity", "setting": "Claudin18.1 on cells [8]", "result": 163000}, {"measurement": "ADCC EC50 (µg/mL), NUGC4 target cells, Jurkat reporter effector cells, Bio-Glo", "setting": "Claudin18.2 on cells [14]", "result": 15.7, "unit": "µg/mL"}, {"measurement": "mean fluorescence intensity", "setting": "Claudin18.2 on cells [9]", "result": "1.23e+06"}, {"measurement": "mean fluorescence intensity", "setting": "Claudin18.2 on cells [10]", "result": 58100}, {"measurement": "mean fluorescence intensity", "setting": "Claudin18.2 on cells [12]", "result": 495000}, {"measurement": "mean fluorescence intensity", "setting": "Claudin18.2 on cells [13]", "result": 113000}]}, {"binder": "B3", "values": [{"measurement": "mean fluorescence intensity", "setting": "Claudin18.2 on cells [15]", "result": 18400}, {"measurement": "mean fluorescence intensity", "setting": "Claudin18.2 on cells [2]", "result": 365000}, {"measurement": "mean fluorescence intensity", "setting": "Claudin18.2 on cells [16]", "result": 12000}, {"measurement": "ADCC inhibition rate, %, antibody 0.1 µg/mL, 293T-Claudin18.2 target cells, PBMC effectors, LDH", "setting": "Claudin18.2 on cells [5]", "result": -0.212, "unit": "%"}, {"measurement": "ADCC inhibition rate, %, antibody 1 µg/mL, 293T-Claudin18.2 target cells, PBMC effectors, LDH", "setting": "Claudin18.2 on cells [5]", "result": 12.3, "unit": "%"}, {"measurement": "ADCC inhibition rate, %, antibody 10 µg/mL, 293T-Claudin18.2 target cells, PBMC effectors, LDH", "setting": "Claudin18.2 on cells [5]", "result": 39.9, "unit": "%"}, {"measurement": "mean fluorescence intensity", "setting": "Claudin18.2 on cells [6]", "result": 578000}, {"measurement": "mean fluorescence intensity", "setting": "Claudin18.2 on cells [17]", "result": 9230}, {"measurement": "mean fluorescence intensity", "setting": "Claudin18.2 on cells [9]", "result": 742000}, {"measurement": "mean fluorescence intensity", "setting": "Claudin18.2 on cells [12]", "result": 196000}]}, {"binder": "B4", "values": [{"measurement": "mean fluorescence intensity", "setting": "Claudin18.2 on cells [2]", "result": 776000}, {"measurement": "mean fluorescence intensity", "setting": "Claudin18.2 on cells [4]", "result": 40000}, {"measurement": "ADCC inhibition rate, %, antibody 0.1 µg/mL, 293T-Claudin18.2 target cells, PBMC effectors, LDH", "setting": "Claudin18.2 on cells [5]", "result": 7.53, "unit": "%"}, {"measurement": "ADCC inhibition rate, %, antibody 1 µg/mL, 293T-Claudin18.2 target cells, PBMC effectors, LDH", "setting": "Claudin18.2 on cells [5]", "result": 16.1, "unit": "%"}, {"measurement": "ADCC inhibition rate, %, antibody 10 µg/mL, 293T-Claudin18.2 target cells, PBMC effectors, LDH", "setting": "Claudin18.2 on cells [5]", "result": 41, "unit": "%"}, {"measurement": "mean fluorescence intensity", "setting": "Claudin18.2 on cells [6]", "result": "1.06e+06"}, {"measurement": "ADCC EC50 (µg/mL), NUGC4 target cells, Jurkat reporter effector cells, Bio-Glo", "setting": "Claudin18.2 on cells [14]", "result": 0.81, "unit": "µg/mL"}, {"measurement": "mean fluorescence intensity", "setting": "Claudin18.2 on cells [9]", "result": "1.24e+06"}, {"measurement": "mean fluorescence intensity", "setting": "Claudin18.2 on cells [10]", "result": 78300}, {"measurement": "mean fluorescence intensity", "setting": "Claudin18.2 on cells [12]", "result": 488000}, {"measurement": "mean fluorescence intensity", "setting": "Claudin18.2 on cells [13]", "result": 158000}]}]}
